Experimental findings from publication PMC3192257 (Molecular microbiology, 2011) are described below.

To fix the notation:
B1: FliW (natural protein, Bacillus subtilis (strain 3610), UniProt P96503 1-143, looked up)
chain: MIIHTKYHGQMNIKEEQIILFESGIPGFLEEKQFVILPLSEDSPFVALQSVTSENLAFIVVSPFIFFKNYEFDLDESTAELLDIDNIQDVEVMTILTMAEPFEKSTANLLAPIIVNRKNMMAKQVVLHDSSYTTKHPIGGESC
B2: 6His-Hag fusion protein (flagellin) (natural protein)
chain: not shown
B3: His-CsrA (CsrA containing six His residues at the C-terminus) (natural protein, Bacillus subtilis, UniProt P33911 1-74, looked up)
chain: MLVLSRKINEAIQIGADIEVKVIAVEGDQVKLGIDAPKHIDIHRKEIYLTIQEENNRAAALSSDVISALSSQKK

For assay [1], the target named is B2. Nature of the assay: ITC. For orientation: Isothermal titration calorimetry measures the heat released or taken up as one component is titrated into another.
The assay “FliW” deals with B1. Kind of assay: ITC.

For orientation: Kd means the equilibrium constant for the complex coming apart. Higher therefore signals a looser complex. For B1, in assay [1], the Kd worked out at 140 nM.

As a reminder, the stoichiometry N is a count of units in the complex or per binding partner. On to B2, for which, in the assay with FliW, the dH is -22 kcal/mol and the “stoichiometry N” value was found to be 1.29.

As to B3, in the assay with FliW, the Kd turned out to be 20 nM, the dH is -15.4 kcal/mol and the “stoichiometry N” value came out at 0.46.
